Data as given in patent US9803019B2, “Carrier immunoglobulins and uses thereof” (Amgen Inc., priority 2010, dated 2017).
Read-outs that look alike come from different tables or passages of the source. Where no end group is shown, it is not given here.

T1: huIL-17R (Homo sapiens, UniProt Q96F46)
T1 construct: FLAG (the F of FpH); polyHis (the pH of FpH)
T1 sequence (Q96F46 with tags, fused parts or gaps): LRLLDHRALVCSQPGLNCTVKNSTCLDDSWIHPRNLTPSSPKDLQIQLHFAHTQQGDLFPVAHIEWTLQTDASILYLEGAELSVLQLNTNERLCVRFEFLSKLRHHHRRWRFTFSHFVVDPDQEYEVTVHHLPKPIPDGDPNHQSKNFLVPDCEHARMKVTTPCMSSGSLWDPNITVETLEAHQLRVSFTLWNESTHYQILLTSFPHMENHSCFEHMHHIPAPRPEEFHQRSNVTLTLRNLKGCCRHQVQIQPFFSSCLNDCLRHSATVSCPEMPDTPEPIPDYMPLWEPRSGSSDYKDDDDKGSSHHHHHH

T2: IL-17R (Homo sapiens, UniProt Q96F46)
T2 construct: endogenous in cells; host or cells: human foreskin fibroblasts (HFF)
T2 sequence (Q96F46 33-866): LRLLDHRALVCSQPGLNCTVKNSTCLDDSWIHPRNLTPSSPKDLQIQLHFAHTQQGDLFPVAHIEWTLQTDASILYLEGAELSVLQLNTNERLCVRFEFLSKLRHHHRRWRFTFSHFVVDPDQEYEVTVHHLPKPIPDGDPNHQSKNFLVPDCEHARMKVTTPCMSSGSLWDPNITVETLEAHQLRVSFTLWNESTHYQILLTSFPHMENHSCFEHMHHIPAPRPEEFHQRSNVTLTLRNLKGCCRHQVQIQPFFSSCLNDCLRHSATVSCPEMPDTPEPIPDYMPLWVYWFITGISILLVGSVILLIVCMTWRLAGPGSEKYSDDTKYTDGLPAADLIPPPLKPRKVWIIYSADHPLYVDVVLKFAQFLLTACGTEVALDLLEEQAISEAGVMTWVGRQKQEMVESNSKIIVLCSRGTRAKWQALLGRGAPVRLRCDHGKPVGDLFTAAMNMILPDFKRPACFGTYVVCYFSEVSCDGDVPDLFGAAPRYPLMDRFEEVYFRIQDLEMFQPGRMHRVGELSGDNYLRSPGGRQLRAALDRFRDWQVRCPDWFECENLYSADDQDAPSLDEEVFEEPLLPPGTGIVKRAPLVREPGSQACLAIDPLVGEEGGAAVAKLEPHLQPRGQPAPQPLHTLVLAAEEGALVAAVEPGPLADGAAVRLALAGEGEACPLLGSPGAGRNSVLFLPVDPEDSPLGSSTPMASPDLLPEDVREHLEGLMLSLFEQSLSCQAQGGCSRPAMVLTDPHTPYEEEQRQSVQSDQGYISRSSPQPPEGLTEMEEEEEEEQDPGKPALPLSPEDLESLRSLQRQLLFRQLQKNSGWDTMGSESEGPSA


Assays:
Kv1.3 = molecular target: T3, Kv1.3 (Homo sapiens, UniProt P22001); assay: Human whole blood assay: thapsigargin-induced IL-2 and IFN-γ secretion; assay type: cell-based; details: for IC50: human whole blood; for Potency Relative to ShK (WB, IL2): ratio of WB IL-2 IC50 to that of ShK(1-35)
T3 construct: endogenous in cells; host or cells: T cells in 50% human whole blood from multiple donors
Protocol: An ex vivo assay was employed to examine impact of toxin peptide analog Kv1.3 inhibitors on secretion of IL-2 and IFN-γ. […] In brief, 50% human whole blood was stimulated with thapsigargin to induce store depletion, calcium mobilization and cytokine secretion. […] After 48 hours at 37° C. and 5% CO2, conditioned medium was collected and the level of cytokine secretion was determined using a 4-spot electrochemiluminescent immunoassay from MesoScale Discovery. […] Kv1.3 is the major voltage-gated potassium channel present on T cells. Allowing for K^+ efflux, Kv1.3 provides the driving force for continued Ca^2+ influx which is necessary for the sustained elevation in intracellular calcium needed for efficient T cell activation and cytokine secretion. […] Therefore, we employed a bioassay whereby the bioactivity of Kv1.3 inhibitors is assessed by examining their ability to block thapsigargin-induced cytokine secretion from T cells in human whole blood.

huIL-17R = molecular target: T1, huIL-17R; assay: BIAcore solution equilibrium binding assay to huIL-17R (16429 immobilized); details: for IL-17R binding capability: 10 nM, 100 nM and 1000 nM antibody incubated with 10 nM IL-17R (FIG. 2A); for IL-17R binding activity: 30 μM antibody with 30 nM IL-17R (FIG. 2B)
Protocol: Antibody 16429 was immobilized to a CM5 sensor chip, and 10 nM of IL-17R in the absence of antibody was used to establish the 100% binding signal of […] that is free of antibody binding in solution. In FIG. 2A, 10 nM, 100 nM and 1000 nM of indicated antibody samples were incubated with the 10 nM IL-17R to determine antibody binding in solution. In FIG. 2B, 30,000 nM of the antibody samples were incubated with 30 nM IL-17R to determine antibody binding in solution. In FIGS. 2A-B, The decreased binding signal of IL-17R after the antibody incubation indicates the binding of the antibody to IL-17R in solution.
A reference antigen binding protein (e.g., Antibody 16429 for human IL-17R or Antibody 16449 for human TR2) is immobilized to a BIACore® 2000, research grade sensor chip CM5 surface according to manufacturer's instructions (BIACore, Inc., Piscataway, N.J.). Carboxyl groups on the sensor chip surfaces are activated by injecting 60 μL of a mixture containing 0.2 M N-ethyl-N′-(dimethylaminopropyl) carbodiimide (EDC) and 0.05 M N-hydroxysuccinimide (NHS). The reference antigen binding protein is diluted in 10 mM sodium acetate, pH 4.0 and injected over the activated chip surface at 30 μL/min for 6 minutes. Excess reactive groups on the surfaces are deactivated by injecting 60 μL of 1 M ethanolamine. The final immobilized level is typically approximately 6600 resonance units (RU). Soluble target antigen (e.g., 10 nM of soluble human IL-17R or 30 nM of soluble human TR2) in the absence of soluble antigen binding protein (e.g., antibody) is used to establish the 100% binding signal to the fixed reference antigen binding protein (e.g., the positive control antibody). The decreased binding signal of the target antigen after incubation of the test immunoglobulin indicates its level of binding to the target antigen in solution.
The lead candidates were then selected based on lack of binding to the IL-17R extracellular domain as determined by BIAcore analysis. Antibody 16429 is a human antibody that specifically binds to huIL-17R. A solution equilibrium binding assay was developed to assess the binding activity of a set of antibodies to huIL-17R. Antibody 16429 was immobilized to a BIACore® 2000, research grade sensor chip CM5 surface according to manufacturer's instructions (BIACore, Inc., Piscataway, N.J.). Briefly, carboxyl groups on the sensor chip surfaces were activated by injecting 60 μL of a mixture containing 0.2 M N-ethyl-N′-(dimethylaminopropyl) carbodiimide (EDC) and 0.05 M N-hydroxysuccinimide (NHS). Antibody 16429 was diluted in 10 mM sodium acetate, pH 4.0 and injected over the activated chip surface at 30 μL/min for 6 minutes. Excess reactive groups on the surfaces were deactivated by injecting 60 μL of 1 M ethanolamine. The final immobilized level was approximately 6600 resonance units (RU). As represented in FIG. 2A, 10 nM of IL-17R in the absence of soluble antibody was used to establish the 100% binding signal of IL-17R to the fixed 16429 antibody. To determine antibody binding in solution, 10 nM, 100 nM and 1000 nM of the antibody samples were incubated with the 10 nM IL-17R. The decreased binding signal of IL-17R after the antibody incubation indicates the binding of the antibody to IL-17R in solution.

IL-17R = molecular target: T2, IL-17R; assay: Cell based activity assay: IL-17-induced GRO-α release from human foreskin fibroblasts (sandwich ELISA); details: HFF, 5 ng/ml IL-17; 0.1, 1 and 10 μM antibody (FIG. 3)
Protocol: The conditioned cell medium was then assessed for GRO-α levels using a GRO-α sandwich ELISA.
Interaction of IL-17 with the IL-17R on cells induces the production of various factors, including growth-related oncogene alpha (GRO-α), from these cells. A cell-based characterization assay was developed to measure GRO-α released using sandwich ELISA. In this ELISA, a GRO-α capture antibody is utilized to bind GRO-α, and then a biotinylated GRO-α detection antibody is used to detect the captured protein. Streptavidin conjugated to horseradish peroxidise (HRP) is then added to detect the amount of biotinylated GRO-α detection antibody bound. The amount of HRP bound is measured by evaluation of absorbance at 450 nm. An increase in absorbance at 450 nm is indicative of an increase in the amount of GRO-α produced. In this assay, human foreskin fibroblasts (HFF) are incubated with 5 ng/ml IL-17 and 0.1 μM, 1 μM and 10 μM of antibody samples. The conditioned cell medium is then harvested and processed for assessment of GRO-α levels using a GRO-α sandwich ELISA.

T3 sequence (P22001 whole entry): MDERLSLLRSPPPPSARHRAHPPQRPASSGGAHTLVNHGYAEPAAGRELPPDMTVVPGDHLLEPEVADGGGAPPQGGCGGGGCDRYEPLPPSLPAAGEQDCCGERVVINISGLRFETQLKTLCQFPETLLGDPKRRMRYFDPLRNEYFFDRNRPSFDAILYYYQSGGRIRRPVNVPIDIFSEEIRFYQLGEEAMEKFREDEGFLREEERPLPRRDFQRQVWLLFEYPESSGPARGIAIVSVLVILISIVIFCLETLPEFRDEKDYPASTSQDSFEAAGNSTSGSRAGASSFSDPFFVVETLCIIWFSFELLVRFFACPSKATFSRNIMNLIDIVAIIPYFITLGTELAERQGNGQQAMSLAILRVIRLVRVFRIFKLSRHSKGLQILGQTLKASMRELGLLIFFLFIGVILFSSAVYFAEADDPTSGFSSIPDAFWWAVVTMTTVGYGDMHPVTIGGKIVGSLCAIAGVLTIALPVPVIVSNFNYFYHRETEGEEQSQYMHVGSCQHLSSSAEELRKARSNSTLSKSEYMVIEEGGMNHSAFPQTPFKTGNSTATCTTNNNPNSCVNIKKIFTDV

Molecule | IC50 (Kv1.3; IFNg, read-out: WB (IFNg) IC50) [pM] | IC50 (Kv1.3; IL-2, read-out: WB (IL-2) IC50) [pM] | Potency Relative to ShK (WB, IL2) (Kv1.3) | IL-17R binding capability (huIL-17R) | IL-17R binding activity (huIL-17R) | blocking activity on IL-17-induced GRO-α production (IL-17R)
20 kDa-PEG-ShK: N-terminally 20 kDa PEGylated ShK, SEQ ID NO:380 | 840 | 380 | – | – | – | –
Bivalent Fc-L10-ShK[1-35] homodimer: IgG1 Fc peptibody, Example 1 of WO2008/088422 A2 (GGGGSGGGGSRSCIDTIPKSRCTAFQCKHSMKYRLSFCRKTCGTC; ends and bridges not checked; also: Fc fusion homodimer, Fc domain not in chain) | 320 | 386 | 5.76 | – | – | –
Bivalent Fc-L10-ShK[2-35] homodimer: IgG1 Fc peptibody, Example 2 of WO2008/088422 A2 (GGGGSGGGGSSCIDTIPKSRCTAFQCKHSMKYRLSFCRKTCGTC; ends and bridges not checked; also: Fc fusion homodimer, Fc domain not in chain) | 2280 | 585 | 8.73 | – | – | –
16438 (antibody, V domains shown) VH: QVQLVQSGAEVKKPGASVKVSCKASGYTFTRYGISWVRQAPGQGLEWMGWISTYSGNTNYAQKLQGRVTMTTDTSTSTAYMELRSLRSDDTAVYYCARRQQYFDYWGQGTLVTVSS VL: EIVMTQSPATLSVSPGERATLSCRASQSVSSNLAWFQQKPGQAPRLLIYDASTRATGVPARFSGSGSGTEFTLTISSLQSEDFAVYYCQQYDNWPLTFGGGTKVEIK | – | – | – | substantial reduction in IL-17R binding capability | no significant IL-17R binding activity | no significant blocking activity
16440 (antibody, V domains shown) VH: QVQLVQSGAEVKKPGASVKVSCKASGYTFTRYGISWVRQAPGQGLEWMGWISTYSGNTNYAQKLQGRVTMTTDTSTSTAYMELRSLRSDDTAVYYCARAQQYFDYWGQGTLVTVSS VL: EIVMTQSPATLSVSPGERATLSCRASQSVSSNLAWFQQKPGQAPRPLIYDASTRATGVPARFSGSGSGTDFTLTISSLQSEDFAVYYCQQYDNWPLTFGGGTKVEIK | – | – | – | substantial reduction in IL-17R binding capability | no significant IL-17R binding activity | no significant blocking activity
16439 (antibody, V domains shown) VH: QVQLVQSGAEVKKPGASVKVSCKASGYTFTRYGISWVRQAPGQGLEWMGWISTYSGNTNYAQKLQGRVTMTTDTSTSTAYMELRSLRSDDTAVYYCARRQQYFDYWGQGTLVTVSS VL: EIVMTQSPATLSVSPGERATLSCRASQSVSSNLAWFQQKPGQAPRLLIYDASTRATGVPARFSGSGSGTEFTLTISSLQSEDFAVYYCQQYDNAPLTFGGGTKVEIK | – | – | – | substantial reduction in IL-17R binding capability | no significant IL-17R binding activity | no significant blocking activity
16441 (antibody, V domains shown) VH: QVQLVQSGAEVKKPGASVKVSCKASGYTFTRYGISWVRQAPGQGLEWMGWISTYSGNTNYAQKLQGRVTMTTDTSTSTAYMELRSLRSDDTAVYYCARAQQYFDYWGQGTLVTVSS VL: EIVMTQSPATLSVSPGERATLSCRASQSVSSNLAWFQQKPGQAPRLLIYDASTRATGVPARFSGSGSGTEFTLTISSLQSEDFAVYYCQQYDNWPLTFGGGTKVEIK | – | – | – | substantial reduction in IL-17R binding capability | no significant IL-17R binding activity | no significant blocking activity
